Test [1] deals with T1, FLAG-tagged soluble muBAFF (murine, UniProt Q9WU72 127-309, limits assumed).
T1 construct: Anti-FLAG M2-purified, 500 ng used; not shown: FLAG tag
Description: co-immunoprecipitation with protein A-Sepharose, anti-FLAG M2 Western blot. (In general: Immunoblotting shows a protein as a band on a membrane.)

Test [2] deals with T2, N-terminus FLAG-tagged human full length TACI expressed on 293EBNA cells (pJST552) (human, UniProt O14836 1-293).
T2 construct: also called FLAG-tagged full length human TACI; flag-tagged full length TACI; not shown: N-terminal FLAG tag
T2 sequence: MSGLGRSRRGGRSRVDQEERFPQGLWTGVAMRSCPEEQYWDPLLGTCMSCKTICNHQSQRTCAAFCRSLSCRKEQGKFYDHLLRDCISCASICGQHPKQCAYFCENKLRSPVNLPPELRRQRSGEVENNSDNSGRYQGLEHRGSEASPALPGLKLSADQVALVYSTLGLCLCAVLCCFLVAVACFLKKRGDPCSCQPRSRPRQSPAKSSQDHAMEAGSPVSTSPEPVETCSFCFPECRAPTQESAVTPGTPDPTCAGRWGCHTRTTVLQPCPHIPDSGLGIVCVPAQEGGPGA
The experiment in a line: flow cytometry on 293EBNA cells transfected with FLAG-tagged full length human TACI; detection with rabbit anti-mAPRIL Rb1532 and anti-rabbit IgG-PE.

T1 sequence (Q9WU72 127-309 limits assumed): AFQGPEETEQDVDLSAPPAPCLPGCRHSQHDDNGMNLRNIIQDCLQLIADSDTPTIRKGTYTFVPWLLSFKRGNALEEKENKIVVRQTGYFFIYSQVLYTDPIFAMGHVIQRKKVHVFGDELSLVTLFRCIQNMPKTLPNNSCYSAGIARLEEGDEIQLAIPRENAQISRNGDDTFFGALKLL

B1: human TACI(1-160)-Ig fusion protein (Fc fusion)
chain: MSGLGRSRRGGRSRVDQEERFPQGLWTGVAMRSCPEEQYWDPLLGTCMSCKTICNHQSQRTCAAFCRSLSCRKEQGKFYDHLLRDCISCASICGQHPKQCAYFCENKLRSPVNLPPELRRQRSGEVENNSDNSGRYQGLEHRGSEASPALPGLKLSADQV
notes: Used as conditioned medium (Optimem) from transfected 293 cells; also called hTACI(1-160)-Ig; PS882 product; not shown: human IgG-Fc
In the case of B1, the binding result in test [1] was “no binding (tested: 500 ng)”.

B2: myc-tagged murine APRIL (ligand)
chain: EQKLISEEDLNGGGGSKELAVLTQKHKKKHSVLHLVPVNITSKDSDVTEVMWQPVLRRGRGLEAQGDIVRVWDTGIYLLYSQVLFHDVTFTMGQVVSREGQGRRETLFRCIRSMPSDPDRAYNSCYSAGVFHLHQGDIITVKIPRANAKLSLSPHGTFLGFVKL
modifications: Glycosylated (expressed in Pichia pastoris); the letters do not carry the glycans.
notes: Purified from P. pastoris supernate; also called myc-muAPRIL; Myc-Murine APRIL A88
B2: the binding result in test [2] was “binds”.

These data come from patent EP1746106A2 (Biogen Idec MA Inc., dated 2007).
